Experimental data as given in patent US20150368338A1 (Janssen / Centocor, published 2015).
Where a chain is given by its changes, count along the chain named. One block for each binder: values may come before it.

What was measured:
Experiment in all cases: ProteOn SPR, cell supernatant;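 note: each binding measurement used just a single antigen concentration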
IFN-αG = biological target: T1, IFN-αG (human, UniProt P01569 24-189)
T1 construct: Recombinant, HEK293; also called IFN-α5

IFN-αF = biological target: T2, IFN-αF (human, UniProt P01568 24-189)
T2 construct: Recombinant, HEK293; also called IFN-α21
T2 chain: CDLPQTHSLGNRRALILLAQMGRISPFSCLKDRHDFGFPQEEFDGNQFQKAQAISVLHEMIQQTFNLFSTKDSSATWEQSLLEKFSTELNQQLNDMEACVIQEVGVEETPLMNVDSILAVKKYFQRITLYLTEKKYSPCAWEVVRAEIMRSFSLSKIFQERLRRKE

IFN-αC = biological target: T3, IFN-αC (human, UniProt P01566 24-189)
T3 construct: Recombinant, HEK293; also called IFN-α10

human IFN-ω = biological target: T4, human IFN-ω (human, UniProt P05000 24-195)
T4 construct: Recombinant, HEK293; also called interferon omega

IFN-αJ1 = biological target: T5, IFN-αJ1 (human, UniProt P01567 24-189)
T5 construct: Recombinant, HEK293; also called IFN-α7

IFN-α4a = biological target: T6, IFN-α4a (human, UniProt P05014 24-189)
T6 construct: Recombinant, HEK293; also called IFN-αM1

IFN-αWA = biological target: T7, IFN-αWA (human, UniProt P05015 24-189)
T7 construct: Recombinant, HEK293; also called IFN-α16

B1: IFWM3371 (antibody, IgG1, V domains shown)
VH: EVQLVQSGAEVKKPGESLKISCKGSGYSFTSYWIGWVRQMPGKGLEWMGIIDPSDSDTAYSPSFQGQVTISADKSISTAYLQWSSLKASDTAMYYCARHPGLNWAPDFDYWGQGTLVTVSS
VL: DIQMTQSPSSLSASVGDRVTITCRASQSIANTNLNWYQQKPGKAPKLLIHWASSLQSGVPSRFSGSGSGTDFTLTISSLQPEDFATYYCQQWYDNPLTFGQGTKVEIK
notes: mAb; IgG1/kappa said of the parent and of selected mAbs; also called IFWB3106
Kd (IFN-αG): 0.05 nM | Kd (IFN-αF): 0.05 nM | Kd (IFN-αC): 0.043 nM | Kd (human IFN-ω): 0.018 nM | Kd (IFN-αJ1): 0.125 nM | Kd (IFN-α4a): 0.1 nM | Kd (IFN-αWA): 0.064 nM

B2: IFWM3384 (antibody, IgG1, V domains shown)
VH: B1 VH with A59R, N103A
VL: DIQMTQSPSSLSASVGDRVTITCRASQSITNFLNWYQQKPGKAPKLLIYFASSLQSGVPSRFSGSGSGTDFTLTISSLQPEDFATYYCQQSLDFPLTFGQGTKVEIK
notes: mAb; IgG1/kappa said of the parent and of selected mAbs; also called IFWB3119
Kd (IFN-αG): 0.022 nM | Kd (IFN-αF): 0.033 nM | Kd (IFN-αC): 0.029 nM | Kd (human IFN-ω): 0.026 nM | Kd (IFN-αJ1): 0.068 nM | Kd (IFN-α4a): 0.077 nM | Kd (IFN-αWA): 0.017 nM

B3: IFWM3394 (antibody, IgG1, V domains shown)
VH: B1 VH with A59R, N103A
VL: B2 VL with T30N, N31E, L92Y, D93S, F94T
notes: mAb; IgG1/kappa said of the parent and of selected mAbs; also called IFWB3129
Kd (IFN-αG): 0.091 nM | Kd (IFN-αF): 0.063 nM | Kd (IFN-αC): 0.063 nM | Kd (human IFN-ω): 0.045 nM | Kd (IFN-αJ1): 0.077 nM | Kd (IFN-α4a): 0.105 nM | Kd (IFN-αWA): 0.049 nM

B8: IFWM3395 (antibody, IgG1, V domains shown)
VH: B1 VH with A59R, N103A
VL: B2 VL with T30S, N31K, L92Y, L96I
notes: mAb; IgG1/kappa said of the parent and of selected mAbs; also called IFWB3130
Kd (IFN-αG): 0.063 nM | Kd (IFN-αF): 0.102 nM | Kd (IFN-αC): 0.116 nM | Kd (human IFN-ω): 0.019 nM | Kd (IFN-αJ1): 0.181 nM | Kd (IFN-α4a): 0.279 nM | Kd (IFN-αWA): 0.063 nM

B9: IFWM3375 (antibody, IgG1, V domains shown)
VH: B1 VH
VL: B1 VL with A30R, T32N, N33Y, H50Y, W51A, W92G, N95T
notes: mAb; IgG1/kappa said of the parent and of selected mAbs; also called IFWB3110
Kd (IFN-αG): 0.035 nM | Kd (IFN-αF): 0.023 nM | Kd (IFN-αC): 0.022 nM | Kd (human IFN-ω): 0.019 nM | Kd (IFN-αJ1): 0.045 nM | Kd (IFN-α4a): 0.067 nM | Kd (IFN-αWA): 0.031 nM

B11: IFWM3376 (antibody, IgG1, V domains shown)
VH: B1 VH
VL: B1 VL with A30S, T32S, N95H
notes: mAb; IgG1/kappa said of the parent and of selected mAbs; also called IFWB3111
Kd (IFN-αG): 0.048 nM | Kd (IFN-αF): 0.039 nM | Kd (IFN-αC): 0.034 nM | Kd (human IFN-ω): 0.02 nM | Kd (IFN-αJ1): 0.14 nM | Kd (IFN-α4a): 0.113 nM | Kd (IFN-αWA): 0.062 nM

More lines, in order of falling Kd (IFN-αG), values ahead:

Kd (IFN-αG): 0.044 nM | Kd (IFN-αF): 0.025 nM | Kd (IFN-αC): 0.016 nM | Kd (human IFN-ω): 0.023 nM | Kd (IFN-αJ1): 0.066 nM | Kd (IFN-α4a): 0.117 nM | Kd (IFN-αWA): 0.042 nM
B7: IFWM3391 (antibody, IgG1, V domains shown)
VH: B1 VH with A59R, N103A
VL: B2 VL with T30N, L92F, D93N, F94L, L96I
notes: mAb; IgG1/kappa said of the parent and of selected mAbs; also called IFWB3126

Kd (IFN-αG): 0.043 nM | Kd (IFN-αF): 0.028 nM | Kd (IFN-αC): 0.027 nM | Kd (human IFN-ω): 0.025 nM | Kd (IFN-αJ1): 0.078 nM | Kd (IFN-α4a): 0.119 nM | Kd (IFN-αWA): 0.062 nM
B13: IFWM3397 (antibody, IgG1, V domains shown)
VH: B1 VH with A59R, N103A
VL: B2 VL with N31G, F50A, L92H
notes: mAb; IgG1/kappa said of the parent and of selected mAbs; also called IFWB3132

Kd (IFN-αG): 0.037 nM | Kd (IFN-αF): 0.118 nM | Kd (IFN-αC): 0.113 nM | Kd (human IFN-ω): 0.036 nM | Kd (IFN-αJ1): 0.299 nM | Kd (IFN-α4a): 0.475 nM | Kd (IFN-αWA): 0.124 nM
B4: IFWM3420 (antibody, IgG1, V domains shown)
VH: B1 VH
VL: B2 VL with T30A, N31G, F50Y, L92Y, D93S, F94I, L96I
notes: mAb; IgG1/kappa said of the parent and of selected mAbs; also called IFWB3155

Kd (IFN-αG): 0.027 nM | Kd (IFN-αF): 0.019 nM | Kd (IFN-αC): 0.03 nM | Kd (human IFN-ω): 0.033 nM | Kd (IFN-αJ1): 0.055 nM | Kd (IFN-α4a): 0.084 nM | Kd (IFN-αWA): 0.044 nM
B5: IFWM3388 (antibody, IgG1, V domains shown)
VH: B1 VH with A59R, N103A
VL: B2 VL with T30G, N31K, F32S, L92Y
notes: mAb; IgG1/kappa said of the parent and of selected mAbs; also called IFWB3123

Kd (IFN-αG): 0.022 nM | Kd (IFN-αF): 0.017 nM | Kd (IFN-αC): 0.017 nM | Kd (human IFN-ω): 0.026 nM | Kd (IFN-αJ1): 0.044 nM | Kd (IFN-α4a): 0.061 nM | Kd (IFN-αWA): 0.03 nM
B10: IFWM3398 (antibody, IgG1, V domains shown)
VH: B1 VH with A59R, N103A
VL: B2 VL with T30N, N31G, F32V, L92H
notes: mAb; IgG1/kappa said of the parent and of selected mAbs; also called IFWB3133

Kd (IFN-αG): 0.021 nM | Kd (IFN-αF): 0.039 nM | Kd (IFN-αC): 0.039 nM | Kd (human IFN-ω): 0.01 nM | Kd (IFN-αJ1): 0.225 nM | Kd (IFN-α4a): 0.155 nM | Kd (IFN-αWA): 0.041 nM
B6: IFWM3370 (antibody, IgG1, V domains shown)
VH: B1 VH
VL: B1 VL with A30D, T32S, N33Y, H50Y, W51G, W92G, Y93W, N95W
notes: mAb; IgG1/kappa said of the parent and of selected mAbs; also called IFWB3105

Kd (IFN-αG): 0.01 nM | Kd (IFN-αF): 0.011 nM | Kd (IFN-αC): 0.011 nM | Kd (human IFN-ω): 0.01 nM | Kd (IFN-αJ1): 0.03 nM | Kd (IFN-α4a): 0.075 nM | Kd (IFN-αWA): 0.029 nM
B12: IFWM3390 (antibody, IgG1, V domains shown)
VH: B1 VH with A59R, N103A
VL: B2 VL with T30D, N31G, F32A, L92F
notes: mAb; IgG1/kappa said of the parent and of selected mAbs; also called IFWB3125
